In patent US20210121563A1 (Novartis, published 2021):

Key:
[1] = target: T1, Programmed Death 1 (PD-1) (UniProt Q15116 25-288, limits assumed); experiment: rank of the clone among the 16 humanized clones by FACS binding data; higher number = worse
[2] = target: T1, Programmed Death 1 (PD-1); experiment: rank of the clone in the competition binding assay with labeled murine mAb BAP049, 1st experiment; higher number = worse
[3] = target: T1, Programmed Death 1 (PD-1); experiment: rank of the clone in the competition binding assay with labeled murine mAb BAP049, 2nd experiment; higher number = worse
[4] = target: T1, Programmed Death 1 (PD-1); experiment: FACS blocking of ligand-Ig binding to PD-1, MFI of bound ligand; ligand by the legend paragraph 125 'PD-L1-Ig and PD-L2-Ig' (no ligand named on the sheet; FIG. 8B is PD-L2-Ig, so most likely PD-L1-Ig); cells not named

T1 sequence (Q15116 25-288 limits assumed): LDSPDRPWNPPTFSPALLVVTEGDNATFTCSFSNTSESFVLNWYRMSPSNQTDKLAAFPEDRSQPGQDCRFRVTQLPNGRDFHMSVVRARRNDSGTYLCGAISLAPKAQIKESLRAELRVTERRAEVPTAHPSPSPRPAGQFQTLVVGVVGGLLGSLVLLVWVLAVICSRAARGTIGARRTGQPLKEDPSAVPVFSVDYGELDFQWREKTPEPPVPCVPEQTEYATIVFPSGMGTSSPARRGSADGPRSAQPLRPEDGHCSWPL

B1: BAP049-hum10 (antibody, human IgG4 S228P, kappa)
heavy: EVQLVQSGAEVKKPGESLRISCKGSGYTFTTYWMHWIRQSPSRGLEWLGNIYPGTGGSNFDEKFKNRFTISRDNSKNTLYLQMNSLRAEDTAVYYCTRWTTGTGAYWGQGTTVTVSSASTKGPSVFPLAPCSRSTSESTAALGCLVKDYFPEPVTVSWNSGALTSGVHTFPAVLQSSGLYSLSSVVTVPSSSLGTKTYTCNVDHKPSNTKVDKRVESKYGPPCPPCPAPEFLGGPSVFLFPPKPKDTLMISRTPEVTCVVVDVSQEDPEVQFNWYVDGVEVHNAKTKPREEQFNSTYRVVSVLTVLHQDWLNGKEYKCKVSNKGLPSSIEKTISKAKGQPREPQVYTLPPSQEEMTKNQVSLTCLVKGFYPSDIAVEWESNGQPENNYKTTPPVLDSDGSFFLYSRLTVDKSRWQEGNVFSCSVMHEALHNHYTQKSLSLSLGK
light: EIVLTQSPATLSLSPGERATLSCKSSQSLLDSGNQKNFLTWYQQKPGQAPRLLIYWASTRESGVPSRFSGSGSGTDFTFTISSLEAEDAATYYCQNDYSYPYTFGQGTKVEIKRTVAAPSVFIFPPSDEQLKSGTASVVCLLNNFYPREAKVQWKVDNALQSGNSQESVTEQDSKDSTYSLSSTLTLSKADYEKHKVYACEVTHQGLSSPVTKSFNRGEC
notes: also called humanized BAP049 clone hum10
Ranking, FACS data [1]: 7
Competition Binding, 1st exp. (rank) [2]: 6
Competition Binding, 2nd exp. (rank) [3]: > 4

B2: BAP049-hum11 (antibody, human IgG4 S228P, kappa)
heavy: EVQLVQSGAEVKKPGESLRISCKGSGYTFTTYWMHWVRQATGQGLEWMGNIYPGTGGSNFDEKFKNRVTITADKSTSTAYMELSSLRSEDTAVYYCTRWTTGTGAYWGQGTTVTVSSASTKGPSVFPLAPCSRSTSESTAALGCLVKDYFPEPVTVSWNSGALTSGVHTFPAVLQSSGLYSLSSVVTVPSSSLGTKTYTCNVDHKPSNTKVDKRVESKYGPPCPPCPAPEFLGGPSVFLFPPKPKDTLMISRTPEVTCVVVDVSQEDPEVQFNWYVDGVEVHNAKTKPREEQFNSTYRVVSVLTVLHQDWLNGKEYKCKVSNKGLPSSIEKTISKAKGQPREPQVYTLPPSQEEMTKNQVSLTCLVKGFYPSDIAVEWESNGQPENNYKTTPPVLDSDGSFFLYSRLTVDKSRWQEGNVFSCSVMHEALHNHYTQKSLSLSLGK
light: EIVLTQSPATLSLSPGERATLSCKSSQSLLDSGNQKNFLTWYQQKPGQAPRLLIYWASTRESGVPSRFSGSGSGTDFTFTISSLEAEDAATYYCQNDYSYPYTFGQGTKVEIKRTVAAPSVFIFPPSDEQLKSGTASVVCLLNNFYPREAKVQWKVDNALQSGNSQESVTEQDSKDSTYSLSSTLTLSKADYEKHKVYACEVTHQGLSSPVTKSFNRGEC
notes: also called humanized BAP049 clone hum11
Ranking, FACS data [1]: 6
Competition Binding, 1st exp. (rank) [2]: 4
Competition Binding, 2nd exp. (rank) [3]: > 4

B3: BAP049-hum15 (antibody, human IgG4 S228P, kappa)
heavy: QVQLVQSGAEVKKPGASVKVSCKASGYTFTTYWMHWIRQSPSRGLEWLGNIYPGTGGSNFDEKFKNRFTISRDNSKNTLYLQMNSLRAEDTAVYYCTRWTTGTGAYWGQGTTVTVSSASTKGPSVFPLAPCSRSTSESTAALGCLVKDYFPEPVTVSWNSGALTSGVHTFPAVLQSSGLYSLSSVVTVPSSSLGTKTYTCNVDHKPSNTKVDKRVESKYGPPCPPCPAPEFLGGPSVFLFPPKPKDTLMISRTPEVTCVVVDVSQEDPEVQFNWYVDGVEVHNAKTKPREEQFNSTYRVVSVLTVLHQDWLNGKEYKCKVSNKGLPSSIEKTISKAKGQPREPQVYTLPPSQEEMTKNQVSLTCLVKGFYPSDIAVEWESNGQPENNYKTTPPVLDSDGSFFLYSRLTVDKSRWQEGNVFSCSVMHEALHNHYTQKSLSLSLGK
light: EIVLTQSPDFQSVTPKEKVTITCKSSQSLLDSGNQKNFLTWYQQKPGQAPRLLIYWASTRESGVPSRFSGSGSGTDFTFTISSLEAEDAATYYCQNDYSYPYTFGQGTKVEIKRTVAAPSVFIFPPSDEQLKSGTASVVCLLNNFYPREAKVQWKVDNALQSGNSQESVTEQDSKDSTYSLSSTLTLSKADYEKHKVYACEVTHQGLSSPVTKSFNRGEC
notes: also called Clone No. 15
Ranking, FACS data [1]: 6
Competition Binding, 1st exp. (rank) [2]: 7
Competition Binding, 2nd exp. (rank) [3]: 15

B4: BAP049-hum05 (antibody, human IgG4 S228P, kappa, V domains shown)
VH: EVQLVQSGAEVKKPGESLRISCKGSGYTFTTYWMHWVRQATGQGLEWMGNIYPGTGGSNFDEKFKNRVTITADKSTSTAYMELSSLRSEDTAVYYCTRWTTGTGAYWGQGTTVTVSS
VL: EIVLTQSPATLSLSPGERATLSCKSSQSLLDSGNQKNFLTWYQQKPGKAPKLLIYWASTRESGVPSRFSGSGSGTDFTFTISSLQPEDIATYYCQNDYSYPYTFGQGTKVEIKR
notes: also called humanized BAP049 clone hum05
Ranking, FACS data [1]: 5
Competition Binding, 1st exp. (rank) [2]: 5
Competition Binding, 2nd exp. (rank) [3]: > 4

B5: BAP049-hum07 (antibody, human IgG4 S228P, kappa)
heavy: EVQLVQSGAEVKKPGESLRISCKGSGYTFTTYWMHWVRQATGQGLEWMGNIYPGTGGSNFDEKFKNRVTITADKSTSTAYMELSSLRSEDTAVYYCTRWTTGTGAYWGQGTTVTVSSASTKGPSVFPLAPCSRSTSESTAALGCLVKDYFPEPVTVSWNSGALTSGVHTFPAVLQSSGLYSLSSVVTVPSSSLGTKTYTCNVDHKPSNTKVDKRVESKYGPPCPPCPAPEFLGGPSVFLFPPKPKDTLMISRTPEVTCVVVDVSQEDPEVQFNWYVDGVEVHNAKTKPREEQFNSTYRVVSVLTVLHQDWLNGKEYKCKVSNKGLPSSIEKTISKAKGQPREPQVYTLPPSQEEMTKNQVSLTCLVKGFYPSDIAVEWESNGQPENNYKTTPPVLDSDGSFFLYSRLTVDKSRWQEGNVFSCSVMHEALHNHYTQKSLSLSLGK
light: EIVLTQSPATLSLSPGERATLSCKSSQSLLDSGNQKNFLTWYQQKPGKAPKLLIYWASTRESGVPSRFSGSGSGTDFTFTISSLEAEDAATYYCQNDYSYPYTFGQGTKVEIKRTVAAPSVFIFPPSDEQLKSGTASVVCLLNNFYPREAKVQWKVDNALQSGNSQESVTEQDSKDSTYSLSSTLTLSKADYEKHKVYACEVTHQGLSSPVTKSFNRGEC
notes: also called Clone No. 7
Ranking, FACS data [1]: 4
Competition Binding, 1st exp. (rank) [2]: 7
Competition Binding, 2nd exp. (rank) [3]: > 4

B6: BAP049-hum09 (antibody, human IgG4 S228P, kappa)
heavy: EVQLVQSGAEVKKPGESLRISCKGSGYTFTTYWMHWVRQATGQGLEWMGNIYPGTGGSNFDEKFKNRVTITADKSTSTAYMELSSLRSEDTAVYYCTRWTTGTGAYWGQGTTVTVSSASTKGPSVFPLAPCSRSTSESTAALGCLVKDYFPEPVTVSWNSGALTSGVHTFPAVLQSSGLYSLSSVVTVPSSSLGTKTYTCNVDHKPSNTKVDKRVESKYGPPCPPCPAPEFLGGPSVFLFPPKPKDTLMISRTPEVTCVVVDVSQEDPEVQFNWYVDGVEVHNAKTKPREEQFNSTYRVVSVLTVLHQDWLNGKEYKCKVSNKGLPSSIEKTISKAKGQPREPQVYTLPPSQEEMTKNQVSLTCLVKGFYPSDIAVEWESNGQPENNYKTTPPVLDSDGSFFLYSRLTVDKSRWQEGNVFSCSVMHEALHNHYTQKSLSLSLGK
light: EIVLTQSPDFQSVTPKEKVTITCKSSQSLLDSGNQKNFLTWYQQKPGQAPRLLIYWASTRESGVPSRFSGSGSGTDFTFTISSLEAEDAATYYCQNDYSYPYTFGQGTKVEIKRTVAAPSVFIFPPSDEQLKSGTASVVCLLNNFYPREAKVQWKVDNALQSGNSQESVTEQDSKDSTYSLSSTLTLSKADYEKHKVYACEVTHQGLSSPVTKSFNRGEC
notes: also called humanized BAP049 clone hum09
Ranking, FACS data [1]: 7
Competition Binding, 1st exp. (rank) [2]: 2
Competition Binding, 2nd exp. (rank) [3]: 4
IC50 (read off the curve) [4]: ~0.7 µg/mL

B7: BAP049-hum04 (antibody, human IgG4 S228P, kappa, V domains shown)
VH: EVQLVQSGAEVKKPGESLRISCKGSGYTFTTYWMHWIRQSPSRGLEWLGNIYPGTGGSNFDEKFKNRFTISRDNSKNTLYLQMNSLRAEDTAVYYCTRWTTGTGAYWGQGTTVTVSS
VL: EIVLTQSPATLSLSPGERATLSCKSSQSLLDSGNQKNFLTWYQQKPGKAPKLLIYWASTRESGVPSRFSGSGSGTDFTFTISSLQPEDIATYYCQNDYSYPYTFGQGTKVEIKR
notes: also called Clone No. 4
Ranking, FACS data [1]: 14
Competition Binding, 1st exp. (rank) [2]: 15
Competition Binding, 2nd exp. (rank) [3]: 15

B8: BAP049-hum08 (antibody, human IgG4 S228P, kappa)
heavy: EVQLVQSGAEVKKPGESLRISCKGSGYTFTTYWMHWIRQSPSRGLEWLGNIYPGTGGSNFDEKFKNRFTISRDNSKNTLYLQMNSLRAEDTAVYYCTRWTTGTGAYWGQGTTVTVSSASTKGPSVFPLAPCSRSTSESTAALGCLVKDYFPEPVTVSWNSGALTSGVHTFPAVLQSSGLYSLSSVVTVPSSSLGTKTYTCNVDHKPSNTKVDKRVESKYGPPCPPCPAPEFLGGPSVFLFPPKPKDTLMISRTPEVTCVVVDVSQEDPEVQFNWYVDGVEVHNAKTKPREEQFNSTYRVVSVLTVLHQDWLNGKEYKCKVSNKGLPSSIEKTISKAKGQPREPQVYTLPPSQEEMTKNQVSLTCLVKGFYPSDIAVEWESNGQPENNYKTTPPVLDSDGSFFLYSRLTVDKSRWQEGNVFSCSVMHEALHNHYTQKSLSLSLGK
light: EIVLTQSPDFQSVTPKEKVTITCKSSQSLLDSGNQKNFLTWYQQKPGQAPRLLIYWASTRESGVPSRFSGSGSGTDFTFTISSLEAEDAATYYCQNDYSYPYTFGQGTKVEIKRTVAAPSVFIFPPSDEQLKSGTASVVCLLNNFYPREAKVQWKVDNALQSGNSQESVTEQDSKDSTYSLSSTLTLSKADYEKHKVYACEVTHQGLSSPVTKSFNRGEC
notes: also called humanized BAP049 clone hum08
Ranking, FACS data [1]: 7
Competition Binding, 1st exp. (rank) [2]: 7
Competition Binding, 2nd exp. (rank) [3]: 4

B9: BAP049-hum01 (antibody, human IgG4 S228P, kappa, V domains shown)
VH: EVQLVQSGAEVKKPGESLRISCKGSGYTFTTYWMHWVRQATGQGLEWMGNIYPGTGGSNFDEKFKNRVTITADKSTSTAYMELSSLRSEDTAVYYCTRWTTGTGAYWGQGTTVTVSS
VL: EIVLTQSPATLSLSPGERATLSCKSSQSLLDSGNQKNFLTWYQQKPGQAPRLLIYWASTRESGVPSRFSGSGSGTEFTLTISSLQPDDFATYYCQNDYSYPYTFGQGTKVEIKR
notes: also called humanized BAP049 clone hum01
Ranking, FACS data [1]: 2
Competition Binding, 1st exp. (rank) [2]: 7
Competition Binding, 2nd exp. (rank) [3]: 2

B10: BAP049-hum14 (antibody, human IgG4 S228P, kappa)
heavy: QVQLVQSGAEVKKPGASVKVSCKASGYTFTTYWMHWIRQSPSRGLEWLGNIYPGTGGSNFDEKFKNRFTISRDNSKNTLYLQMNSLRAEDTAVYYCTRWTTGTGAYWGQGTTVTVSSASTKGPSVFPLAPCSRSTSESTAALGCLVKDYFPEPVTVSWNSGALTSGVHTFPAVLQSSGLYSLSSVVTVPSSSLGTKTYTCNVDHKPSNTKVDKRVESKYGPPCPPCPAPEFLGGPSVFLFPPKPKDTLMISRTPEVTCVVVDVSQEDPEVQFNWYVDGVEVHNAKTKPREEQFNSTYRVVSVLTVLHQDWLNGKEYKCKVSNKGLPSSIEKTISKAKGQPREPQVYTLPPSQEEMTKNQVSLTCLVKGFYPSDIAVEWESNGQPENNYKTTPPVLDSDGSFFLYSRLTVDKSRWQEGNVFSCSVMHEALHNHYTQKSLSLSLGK
light: EIVLTQSPATLSLSPGERATLSCKSSQSLLDSGNQKNFLTWYQQKPGQAPRLLIYWASTRESGVPSRFSGSGSGTDFTFTISSLEAEDAATYYCQNDYSYPYTFGQGTKVEIKRTVAAPSVFIFPPSDEQLKSGTASVVCLLNNFYPREAKVQWKVDNALQSGNSQESVTEQDSKDSTYSLSSTLTLSKADYEKHKVYACEVTHQGLSSPVTKSFNRGEC
notes: also called Clone No. 14
Ranking, FACS data [1]: 16
Competition Binding, 1st exp. (rank) [2]: 7
Competition Binding, 2nd exp. (rank) [3]: 15

B11: BAP049-hum06 (antibody, human IgG4 S228P, kappa)
heavy: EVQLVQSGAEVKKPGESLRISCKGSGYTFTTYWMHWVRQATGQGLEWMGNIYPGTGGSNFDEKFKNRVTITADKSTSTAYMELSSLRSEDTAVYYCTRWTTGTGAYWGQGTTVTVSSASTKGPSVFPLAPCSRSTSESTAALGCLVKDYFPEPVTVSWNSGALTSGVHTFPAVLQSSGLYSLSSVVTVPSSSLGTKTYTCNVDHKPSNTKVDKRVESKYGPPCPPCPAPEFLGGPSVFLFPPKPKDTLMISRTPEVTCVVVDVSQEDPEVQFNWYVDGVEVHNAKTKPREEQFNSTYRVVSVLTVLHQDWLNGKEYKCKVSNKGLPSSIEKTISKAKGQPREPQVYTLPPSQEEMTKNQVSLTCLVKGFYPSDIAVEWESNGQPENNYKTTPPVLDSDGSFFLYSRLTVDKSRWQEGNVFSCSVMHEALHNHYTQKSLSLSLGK
light: DIVMTQTPLSLPVTPGEPASISCKSSQSLLDSGNQKNFLTWYQQKPGQAPRLLIYWASTRESGVPSRFSGSGSGTDFTFTISSLEAEDAATYYCQNDYSYPYTFGQGTKVEIKRTVAAPSVFIFPPSDEQLKSGTASVVCLLNNFYPREAKVQWKVDNALQSGNSQESVTEQDSKDSTYSLSSTLTLSKADYEKHKVYACEVTHQGLSSPVTKSFNRGEC
notes: also called Clone No. 6
Ranking, FACS data [1]: 1
Competition Binding, 1st exp. (rank) [2]: 7
Competition Binding, 2nd exp. (rank) [3]: 3

B12: BAP049-hum16 (antibody, human IgG4 S228P, kappa, V domains shown)
VH: EVQLVQSGAEVKKPGESLRISCKGSGYTFTTYWMHWVRQAPGQGLEWMGNIYPGTGGSNFDEKFKNRFTISRDNSKNTLYLQMNSLRAEDTAVYYCTRWTTGTGAYWGQGTTVTVSS
VL: EIVLTQSPDFQSVTPKEKVTITCKSSQSLLDSGNQKNFLTWYQQKPGQAPRLLIYWASTRESGVPSRFSGSGSGTDFTFTISSLEAEDAATYYCQNDYSYPYTFGQGTKVEIKR
notes: also called Clone No. 16
Ranking, FACS data [1]: 15
Competition Binding, 1st exp. (rank) [2]: 16
Competition Binding, 2nd exp. (rank) [3]: 15

B13: BAP049-hum03 (antibody, human IgG4 S228P, kappa, V domains shown)
VH: EVQLVQSGAEVKKPGESLRISCKGSGYTFTTYWMHWIRQSPSRGLEWLGNIYPGTGGSNFDEKFKNRFTISRDNSKNTLYLQMNSLRAEDTAVYYCTRWTTGTGAYWGQGTTVTVSS
VL: DIQMTQSPSSLSASVGDRVTITCKSSQSLLDSGNQKNFLTWYQQKPGQAPRLLIYWASTRESGIPPRFSGSGYGTDFTLTINNIESEDAAYYFCQNDYSYPYTFGQGTKVEIKR
notes: also called Clone No. 3
Ranking, FACS data [1]: 7
Competition Binding, 1st exp. (rank) [2]: 8
Competition Binding, 2nd exp. (rank) [3]: 14

B14: Chi mAb (Tyr) (antibody, human IgG4 S228P, kappa, V domains shown)
VH: QVQLQQSGSELVRPGASVKLSCKASGYTFTTYWMHWVRQRPGQGLEWIGNIYPGTGGSNFDEKFKNRTSLTVDTSSTTAYMHLASLTSEDSAVYYCTRWTTGTGAYWGQGTTVTVSS
VL: DIVMTQSPSSLTVTAGEKVTMSCKSSQSLLDSGNQKNFLTWYQQKPGQPPKLLIFWASTRESGVPDRFTGSGSVTDFTLTISSVQAEDLAVYYCQNDYSYPYTFGQGTKVEIKR
notes: also called BAP049-chi-Y; Chi (Tyr)
IC50 (read off the curve) [4]: ~0.8 µg/mL

B15: Mu mAb (antibody, V domains shown)
VH: QVQLQQSGSELVRPGASVKLSCKASGYTFTTYWMHWVRQRPGQGLEWIGNIYPGTGGSNFDEKFKNRTSLTVDTSSTTAYMHLASLTSEDSAVYYCTRWTTGTGAYWGQGTLVTVSA
VL: DIVMTQSPSSLTVTAGEKVTMSCKSSQSLLDSGNQKNFLTWYQQKPGQPPKLLIFWASTRESGVPDRFTGSGSVTDFTLTISSVQAEDLAVYYCQNDYSYPCTFGGGTKLEIK
notes: also called murine anti-PD-1 mAb BAP049; Mu mAb control
IC50 (read off the curve) [4]: ~0.6 µg/mL

B16: BAP049-hum02 (antibody, human IgG4 S228P, kappa, V domains shown)
VH: EVQLVQSGAEVKKPGESLRISCKGSGYTFTTYWMHWVRQATGQGLEWMGNIYPGTGGSNFDEKFKNRVTITADKSTSTAYMELSSLRSEDTAVYYCTRWTTGTGAYWGQGTTVTVSS
VL: DIQMTQSPSSLSASVGDRVTITCKSSQSLLDSGNQKNFLTWYQQKPGQAPRLLIYWASTRESGIPPRFSGSGYGTDFTLTINNIESEDAAYYFCQNDYSYPYTFGQGTKVEIKR
notes: also called Clone No. 2
Ranking, FACS data [1]: 6
Competition Binding, 1st exp. (rank) [2]: 3
Competition Binding, 2nd exp. (rank) [3]: 2

B17: BAP049-hum12 (antibody, human IgG4 S228P, kappa, V domains shown)
VH: EVQLVQSGAEVKKPGESLRISCKGSGYTFTTYWMHWVRQATGQGLEWMGNIYPGTGGSNFDEKFKNRVTITADKSTSTAYMELSSLRSEDTAVYYCTRWTTGTGAYWGQGTTVTVSS
VL: DIQMTQSPSSLSASVGDRVTITCKSSQSLLDSGNQKNFLTWYLQKPGQSPQLLIYWASTRESGVPSRFSGSGSGTDFTFTISSLEAEDAATYYCQNDYSYPYTFGQGTKVEIKR
notes: also called Clone No. 12
Ranking, FACS data [1]: 3
Competition Binding, 1st exp. (rank) [2]: 8
Competition Binding, 2nd exp. (rank) [3]: 16

B18: BAP049-hum13 (antibody, human IgG4 S228P, kappa)
heavy: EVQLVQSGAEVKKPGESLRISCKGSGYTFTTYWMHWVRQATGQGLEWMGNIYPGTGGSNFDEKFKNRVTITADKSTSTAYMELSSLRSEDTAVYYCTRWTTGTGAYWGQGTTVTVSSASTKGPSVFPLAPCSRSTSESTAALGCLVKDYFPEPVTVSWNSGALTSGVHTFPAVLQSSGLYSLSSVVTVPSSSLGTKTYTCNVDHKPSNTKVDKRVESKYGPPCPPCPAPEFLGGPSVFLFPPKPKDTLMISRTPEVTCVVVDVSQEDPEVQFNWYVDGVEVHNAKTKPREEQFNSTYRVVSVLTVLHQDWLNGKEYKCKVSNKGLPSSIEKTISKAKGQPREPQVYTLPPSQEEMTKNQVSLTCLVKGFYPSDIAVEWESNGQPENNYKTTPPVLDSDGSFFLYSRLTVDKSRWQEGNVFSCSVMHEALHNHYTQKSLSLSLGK
light: DVVMTQSPLSLPVTLGQPASISCKSSQSLLDSGNQKNFLTWYQQKPGKAPKLLIYWASTRESGVPSRFSGSGSGTDFTFTISSLEAEDAATYYCQNDYSYPYTFGQGTKVEIKRTVAAPSVFIFPPSDEQLKSGTASVVCLLNNFYPREAKVQWKVDNALQSGNSQESVTEQDSKDSTYSLSSTLTLSKADYEKHKVYACEVTHQGLSSPVTKSFNRGEC
notes: also called Clone No. 13
Ranking, FACS data [1]: 6
Competition Binding, 1st exp. (rank) [2]: 1
Competition Binding, 2nd exp. (rank) [3]: 1
